One test deals with pro-survival proteins. The test is described as follows: cell-based or functional assay.
The target of test [1] is mouse Mcl-1 with truncations of 151 amino acid residues at its N-terminus and 23 residues at its C-terminus (mouse) (UniProt P97287). The test is described as follows: competition phage ELISA. (ELISA stands for enzyme-linked immunosorbent assay.)
Test [2] addresses Recombinant human Bcl-xL with a 25 amino acid truncation of its C-terminus (human) (UniProt Q07817). As to the kind of experiment: competition phage ELISA.
The target of test [3] is A1. As to the kind of experiment: Biacore competition vs immobilised BimBH3.
In test [4] the target is Bcl-w. The test is described as follows: Biacore competition vs immobilised BimBH3. Background: In SPR one partner is held on a chip, and binding of the other changes the refractive index at the surface.
The target in test [5] is Bcl-2. As to the kind of experiment: Biacore competition vs immobilised BimBH3.
In test [6] the target is mouse Mcl-1 with truncations of 151 amino acid residues at its N-terminus and 23 residues at its C-terminus (mouse) (UniProt P97287). The test is described as follows: Biacore competition vs immobilised BimBH3.
Test [7] concerns the target Recombinant human Bcl-xL with a 25 amino acid truncation of its C-terminus (human) (UniProt Q07817). As to the kind of experiment: Biacore competition vs immobilised BimBH3.
Test [8] shares this target. As to the kind of experiment: Bim BH3 substitution scan.
Test [9] concerns the target Bcl-w. The test is described as follows: competition phage ELISA.
The target of test [10] is Bcl-2. As to the kind of experiment: competition phage ELISA.
Test [11] addresses A1. The test is described as follows: Biacore competition, synthetic peptides.
In test [12] the target is mouse Mcl-1 with truncations of 151 amino acid residues at its N-terminus and 23 residues at its C-terminus (mouse) (UniProt P97287). As to the kind of experiment: Biacore competition, synthetic peptides.
Test [13] has as its target Recombinant human Bcl-xL with a 25 amino acid truncation of its C-terminus (human) (UniProt Q07817). The test is described as follows: competition phage ELISA. This is another data set of the same source.

Read-outs that look alike come from different tables or passages of the source. Bounds are passed on as bounds.

Recombinant human Bcl-xL with a 25 amino acid truncation of its C-terminus (human), sequence (Q07817 1-208): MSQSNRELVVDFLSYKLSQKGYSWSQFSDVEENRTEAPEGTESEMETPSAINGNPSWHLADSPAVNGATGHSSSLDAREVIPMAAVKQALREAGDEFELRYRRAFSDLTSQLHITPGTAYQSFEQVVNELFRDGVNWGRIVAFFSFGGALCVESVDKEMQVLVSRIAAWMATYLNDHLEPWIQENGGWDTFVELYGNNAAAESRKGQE
mouse Mcl-1 with truncations of 151 amino acid residues at its N-terminus and 23 residues at its C-terminus (mouse), sequence (P97287 152-308): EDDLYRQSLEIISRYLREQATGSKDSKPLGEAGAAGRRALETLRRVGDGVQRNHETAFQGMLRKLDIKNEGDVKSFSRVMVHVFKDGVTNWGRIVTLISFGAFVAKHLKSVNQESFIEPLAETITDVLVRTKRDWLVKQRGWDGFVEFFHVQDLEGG
Bcl-w, sequence (Q92843 1-164): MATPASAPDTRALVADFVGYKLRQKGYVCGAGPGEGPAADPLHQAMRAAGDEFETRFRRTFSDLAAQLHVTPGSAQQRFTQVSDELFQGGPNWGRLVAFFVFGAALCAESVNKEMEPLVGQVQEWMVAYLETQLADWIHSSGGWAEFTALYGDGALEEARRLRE
Bcl-2, sequence (P10415 1-217): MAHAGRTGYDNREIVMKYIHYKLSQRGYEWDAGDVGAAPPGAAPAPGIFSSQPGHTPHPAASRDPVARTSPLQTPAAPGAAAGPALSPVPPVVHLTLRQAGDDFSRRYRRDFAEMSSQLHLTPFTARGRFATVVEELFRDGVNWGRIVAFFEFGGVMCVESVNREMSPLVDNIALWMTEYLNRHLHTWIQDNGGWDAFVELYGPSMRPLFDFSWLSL

The substance BimS G16E registered a % viability in wild-type MEFs in the test with pro-survival proteins of 93%.

Usually IC50 stands for the concentration needed to halve the response being measured. In [1], Bim BH3 R3A, phage-displayed (peptide) yielded a Fold/wt of 1 fold and an IC50 of 9 nM. In [2], the Fold/wt was 1 fold and the IC50 was determined as 3 nM.

Turning to Bim BH3 E11A, phage-displayed (peptide), in test [1], the Fold/wt stood at 1 fold and the IC50 amounted to 10 nM. Further, in [2], the Fold/wt came out at 1 fold and the IC50 was found to be 4 nM.

In test [1], Bim BH3 Y23A, phage-displayed (peptide) came in with a Fold/wt of 1 fold and an IC50 of 12 nM. In addition, in test [2], the Fold/wt was determined as 1 fold and the IC50 amounted to 4 nM.

For the substance BimBH3 A9E synthetic peptide, the Fold/wt BimBH3 with A1 [3] is 7 fold; with Bcl-w [4], 34 fold; with Bcl-2 [5], 56 fold; in [6], 2 fold; in [7] it was 68 fold.

In [1], Bim BH3 R14A, phage-displayed (peptide) came in with a Fold/wt of 1 fold and an IC50 of 10 nM. In [2], the Fold/wt came out at 2 fold and the IC50 stood at 5 nM.

Consider Bim BH3 R25A, phage-displayed (peptide), for which, in test [1], the Fold/wt came to 1 fold and the IC50 amounted to 8 nM. Further, in [2], the Fold/wt came out at 1 fold and the IC50 stood at 2 nM.

In test [1], Bim BH3 R13A, phage-displayed (peptide) showed a Fold/wt of 1 fold and an IC50 of 13 nM. Also, in [2], the Fold/wt turned out to be 1 fold and the IC50 was 4 nM.

For the substance BimBH3 I15A synthetic peptide, the Fold/wt BimBH3 in the test with A1 [3] worked out at 2 fold; in the test with Bcl-w [4], 1 fold; with Bcl-2 [5], 2 fold; in test [6], 2 fold; in test [7], 1 fold.

With Bim BH3 L12W, phage-displayed (peptide), the fold decrease in binding affinity in test [8] was 22 fold.

In [1], Bim BH3 D17A, phage-displayed (peptide) returned a Fold/wt of 28 fold, an IC50 of 256 nM and a fold effect on binding of 15 fold.

For the substance BimBH3 L12A + F19A synthetic peptide, the values for the Fold/wt BimBH3 (with A1 [3]; in [6]; in test [7]) were 120 fold, 1 fold and above 1560 fold, respectively.

As to Bim BH3 G16E, phage-displayed (peptide), in test [1], the Fold/wt stood at 3 fold, the IC50 was 27 nM and the fold effect on binding amounted to 38 fold.

With BimBH3 D17A synthetic peptide, the Fold/wt BimBH3 in the test with A1 [3] is 1 fold; in the test with Bcl-w [4], 30 fold; with Bcl-2 [5] it was 4 fold; in test [6] it was 2 fold; in test [7], 3 fold.

In test [1], Bim BH3 N20A, phage-displayed (peptide) displayed a Fold/wt of 1 fold and a 50% inhibitory concentration (IC50) of 7 nM. For the same substance, in [2], the Fold/wt was determined as 2 fold and the IC50 is 5 nM.

In test [1], Bim BH3 Q10A, phage-displayed (peptide) came in with a Fold/wt of 1 fold and an IC50 of 10 nM. In test [2], the Fold/wt turned out to be 1 fold and the IC50 worked out at 4 nM.

In the test with pro-survival proteins, BimS L12A yielded a % viability in wild-type MEFs of 57%.

In [1], Bim BH3 M2A, phage-displayed (peptide) gave a Fold/wt of 1 fold and an IC50 of 13 nM. In addition, in test [2], the Fold/wt was found to be 2 fold and the concentration for half-maximal inhibition (IC50) stood at 4 nM.

For Bim BH3 L12F, phage-displayed (peptide), the fold decrease in binding affinity in test [8] was found to be 5 fold.

For Bim BH3 R26A, phage-displayed (peptide), the Fold/wt in [1] and in test [2] was 1 fold in each case. Also, the IC50 in test [1] is 8 nM; in test [2], 4 nM.

Regarding Bim BH3 I6A, phage-displayed (peptide), the Fold/wt was determined as 1 fold in [1] and 3 fold in test [2]. The IC50 in test [1] is 11 nM; in [2] it was 8 nM.

In [1], Bim BH3 D1A, phage-displayed (peptide) gave a Fold/wt of 1 fold and an IC50 of 10 nM. Also, in test [2], the Fold/wt stood at 1 fold and the IC50 is 3 nM.

With Bim BH3 I15A, phage-displayed (peptide), the Fold/wt (with Bcl-w [9]; with Bcl-2 [10]; in test [1]; in test [2]) was 1 fold each time. The IC50 is 18 nM with Bcl-w [9], 7 nM in the test with Bcl-2 [10], 10 nM in [1] and 2 nM in test [2].

In the test with pro-survival proteins, BimS F19A came in with a % viability in wild-type MEFs of 22%.

BimBH3 G16E synthetic peptide: the Fold/wt BimBH3 with A1 [3] was 260 fold; with Bcl-w [4] it was above 256 fold; with Bcl-2 [5], 306 fold; in test [6], 18 fold; in [7], 83 fold.

Turning to Bim BH3 P4A, phage-displayed (peptide), the Fold/wt in test [1] and in test [2] was 1 fold in each case. Besides, the IC50 turned out to be 12 nM in test [1] and 3 nM in test [2].

As for wild-type full-length BimS, the % viability in wild-type MEFs in the test with pro-survival proteins was 19%.

As for Bim BH3 E5A, phage-displayed (peptide), the Fold/wt in [1] and in test [2] was 1 fold throughout. In addition, the results for the IC50 in [1] and in [2] were 10 nM and 3 nM, respectively.

Turning to Bim BH3 E18A, phage-displayed (peptide), the values for the Fold/wt in test [1] and in test [2] were 9 fold and 3 fold, respectively. In addition, the figures for the IC50 in test [1] and in test [2] were 80 nM and 8 nM, respectively.

As to BimBH3 L12A synthetic peptide, the Fold/wt BimBH3 with A1 [3] turned out to be 17 fold; in the test with Bcl-w [4], 31 fold; with Bcl-2 [5] it was 43 fold; in test [6] it was 1 fold; in test [7], 11 fold. For the same substance, the fold decrease in binding affinity stood at 7 fold with A1 [11] and 2 fold in test [12].

Bim BH3 Y22A, phage-displayed (peptide): in test [1], the Fold/wt was found to be 1 fold and the IC50 amounted to 12 nM. In test [2], the Fold/wt was determined as 1 fold and the IC50 worked out at 4 nM.

In test [1], Bim BH3 A21E, phage-displayed (peptide) yielded a Fold/wt of 2 fold and an IC50 of 16 nM. Further, in test [2], the Fold/wt was 1 fold and the IC50 turned out to be 3 nM.

Bim BH3 I8A, phage-displayed (peptide): the Fold/wt in the test with Bcl-w [9] amounted to 4 fold; with Bcl-2 [10], 3 fold; in test [1], 1 fold; in test [2], 2 fold. Moreover, the IC50 turned out to be 74 nM with Bcl-w [9], 17 nM with Bcl-2 [10], 9 nM in [1] and 7 nM in test [2].

As to Bim BH3 F19A, phage-displayed (peptide), the IC50 amounted to 60 nM in test [13]; 364 nM with Bcl-w [9]; 11 nM with Bcl-2 [10]; 16 nM in [1]; 69 nM in test [2]. The fold weaker than wild-type BimBH3 in test [13] was found to be 20 fold. Besides, the Fold/wt in the test with Bcl-w [9] stood at 18 fold; in test [2], 24 fold.

Turning to Bim BH3 W7A, phage-displayed (peptide), in test [1], the Fold/wt was determined as 1 fold and the IC50 was 10 nM. In [2], the Fold/wt was determined as 1 fold and the IC50 came out at 3 nM.

For “mNoxaA BH3 D26A, phage-displayed (peptide)”, in [1], the Fold/wt came out at 2 fold and the IC50 was determined as 62 nM.

In the case of Bim BH3 A9E, phage-displayed (peptide), in [1], the Fold/wt turned out to be 3 fold and the IC50 is 32 nM.

Substance BimS A9E returned a % viability in wild-type MEFs in the test with pro-survival proteins of 55%.

With Bim BH3 L12A, phage-displayed (peptide), the IC50 in test [13] came out at 130 nM; with Bcl-w [9] it was 486 nM; in [1], 10 nM; in test [2] it was 124 nM. In addition, the fold weaker than wild-type BimBH3 in test [13] turned out to be 50 fold. Besides, the fold decrease in affinity in test [8] fell in the range of 50 to 80 fold. Moreover, the Fold/wt with Bcl-w [9] came to 24 fold; in [1], 1 fold; in test [2], 43 fold.

For the substance Bim BH3 L12V, phage-displayed (peptide), the fold decrease in affinity in test [8] lay in the range of 50 to 80 fold.

Take Bim BH3 A24E, phage-displayed (peptide): the Fold/wt in test [1] and in [2] was 1 fold in each case. Further, the values for the IC50 in test [1] and in [2] were 8 nM and 2 nM, respectively.

Consider BimBH3 I8A synthetic peptide, for which the Fold/wt BimBH3 in the test with A1 [3] was 1 fold; in the test with Bcl-w [4] it was 2 fold; in the test with Bcl-2 [5], 3 fold; in test [6], 1 fold; in [7], 1 fold.

The values above are taken from patent US20090048164A1.
